These results are taken from US20230068663A1 (University of Texas, published 2023).

A value given as a limit tells only on which side of the number the result lay.

Test [1] has as its target T1, LILRB2-His antigen (UniProt Q8N423 22-460, limits assumed).
T1 construct: Coated on ELISA plates; also used for phage panning; also called LILRB2 antigen; not shown: His tag
The test is described as follows: ELISA titration on LILRB2 and LILRA1 antigens.

The target of test [2] is T2, LILRB2 chimeric receptor on LILRB2 reporter cells (extracellular domain of LILRB2 fused with … (UniProt Q8N423 22-460)).
T2 construct: extracellular domain;domain: transmembrane/intracellular domains; associates with DAP12; also called LILRB2-expressing reporter cells
The test is described as follows: flow cytometry, LILRB2 reporter cells. An excerpt: (§1) FIGS. 1A-C. Screening specific monoclonal antibodies for LILRB2. […] Binding of monoclonal antibodies was screened using flow cytometer on LILRB2 reporter cells. Bound antibodies were detected with Allophycocyanin (APC)-labeled goat anti-human IgG secondary antibody. (FIG. 1B) Quantification of binding ability of monoclonal antibodies to LILRB2 reporter cells.
(§2) Screening specific monoclonal antibodies for LILRB2. The inventors employed a stable reporter cell system to detect the binding ability of selected monoclonal antibodies to LILRB2. In this chimeric receptor reporter system, the extracellular domain (ECD) of LILRB2 is fused with transmembrane/intracellular domains of PILRb that associates with the adaptor protein DAP12 containing an immunoreceptor tyrosine-based activation motif. 27 monoclonal antibodies were screened. The LILRB2 reporter cells were incubated with selected monoclonal antibody, then labeled with (APC) goat anti-human IgG secondary antibody. […] The inventors generated LILRBAs and LILRBs reporters stably transduced with each receptor's extracellular domain (ECD).

The target of test [3] is T1, LILRB2-His antigen. The test can be described thus: indirect ELISA, coated LILRB2-His. The protocol: ELISA binding EC of LILRB2 antibodies. The ELISA binding EC₅₀ of these 24 antibodies were measured by indirect ELISA. […] After incubation, HRP-conjugated goat anti-human Fc secondary antibody was incubated with the plates. The TMB substrate was added for color development and measurement of absorbance at 450 nm.

In test [4] the target is T3, LILRB2 (antigen in solution, Octet RED 96) (UniProt Q8N423 22-460, limits assumed).
T3 construct: also called LILRB2 solution
The test is described as follows: BLI (Octet RED 96), antibody on protein A biosensor, LILRB2 in solution. Here is the method:
Affinity measurement of blocking antibodies. Affinities of the 5 blocking antibodies were measured on Octet RED 96 system.

Test [5] deals with T4, LAIR1 on reporter cells (UniProt Q6GTX8 22-165, limits assumed).
T4 sequence (looked up): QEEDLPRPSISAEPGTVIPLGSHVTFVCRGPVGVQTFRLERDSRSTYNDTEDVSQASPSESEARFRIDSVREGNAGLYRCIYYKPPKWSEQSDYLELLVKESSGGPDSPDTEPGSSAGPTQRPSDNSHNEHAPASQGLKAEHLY
The test can be described thus: flow cytometry, reporter cells. The protocol:
Binding of LILRB2 monoclonal antibodies was detected using flow cytometry on LILRAs, LILRBs or LAIR1-expressing reporter cells using a Allophycocyanin (APC)-labeled goat anti-human IgG Fc specific secondary antibody. Non: non-stained reporter cells. NEG: cells incubated only with secondary Ab. POS: cells incubated with commercial antibody conjugated with APC or AF647 for the respective LIL or LAIR-1 receptors. The number indicates mean fluorescence intensity (MFI) of APC or AF647.

The target in test [6] is T5, full extracellular domain (ECD) of LILRB2 fused to Fc fragment of mouse IgG2a (human; mouse, UniProt Q8N423 22-460).
T5 construct: extracellular domain; also called B2-ECD; wildtype B2-ECD; not shown: Fc fragment of mouse IgG2a
The test can be described thus: ELISA, coated human LILRB2 ECD-mIgG2a Fc [panel A]. From the text: FIGS. 19A-B. ELISA binding measurement of antibodies to human and non-human primate (cynomolgus monkey, cyno) LILRB2 recombinantly produced in HEK293 cells. (FIG. 19A) ELISA binding to human LILRB2. (FIG. 19B) ELISA binding to cyno-LILRB2. The fusion proteins of the extracellular domain (ECD) of human LILRB2 or NHP-LILRB2 with Fe of mouse IgG2a were used to coat ELISA plates and antibodies were titrated in different concentrations as indicated in the graph.

Test [7] has as its target T4, LAIR1 on reporter cells. The test can be described thus: flow cytometry, reporter cells [cont'd].
The next test has as its target T6, LILRA5.
T6 construct: also called LILRA5 reporter cells
The test can be described thus: flow cytometry, reporter cells [cont'd].

The target in another test is T7, LILRA6.
T7 construct: also called LILRA6 reporter cells
T7 sequence (chain, as listed by the source limits assumed): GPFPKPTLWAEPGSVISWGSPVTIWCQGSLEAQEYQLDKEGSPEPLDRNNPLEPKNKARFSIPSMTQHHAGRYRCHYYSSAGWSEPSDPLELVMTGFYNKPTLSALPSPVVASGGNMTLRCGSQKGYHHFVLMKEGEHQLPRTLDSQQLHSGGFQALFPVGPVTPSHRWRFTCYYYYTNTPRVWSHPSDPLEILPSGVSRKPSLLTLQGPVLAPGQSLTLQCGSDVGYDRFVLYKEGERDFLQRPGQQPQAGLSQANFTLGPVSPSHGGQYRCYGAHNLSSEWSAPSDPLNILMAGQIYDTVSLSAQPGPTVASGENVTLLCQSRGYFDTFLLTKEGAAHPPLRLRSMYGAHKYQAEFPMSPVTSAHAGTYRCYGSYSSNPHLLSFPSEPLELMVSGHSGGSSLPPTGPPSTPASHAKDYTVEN
The test can be described thus: flow cytometry, reporter cells [cont'd].

For test [8], the target named is T2, LILRB2 chimeric receptor on LILRB2 …. The test can be described thus: flow cytometry on LILRB2 reporter cells, APC anti-human IgG.
Description: as §1, §2

Test [9] has as its target T4, LAIR1 on reporter cells. The test can be described thus: flow cytometry, reporter cells. This is another data set of the same source.

T6 sequence (chain, as listed by the source limits assumed): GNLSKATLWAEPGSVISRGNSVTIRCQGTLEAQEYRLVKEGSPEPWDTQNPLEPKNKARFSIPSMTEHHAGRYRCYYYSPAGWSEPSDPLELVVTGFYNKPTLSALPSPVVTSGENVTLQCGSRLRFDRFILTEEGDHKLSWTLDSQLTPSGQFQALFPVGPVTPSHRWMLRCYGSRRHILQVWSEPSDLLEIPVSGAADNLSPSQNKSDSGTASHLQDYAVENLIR

B1: B2-10 (antibody, V domains shown)
VH: QVQLVQSGGGLVQPGGSLRLSCAASGFTFSSYAMSWVRQAPGKGLEWVSTINDSGGSTYYADSVKGRFTISRDNSKNTLYLQMNSLRAEDTAVYYCAKDHITIFGVAPFDYWGLGTLVTVSS
VL: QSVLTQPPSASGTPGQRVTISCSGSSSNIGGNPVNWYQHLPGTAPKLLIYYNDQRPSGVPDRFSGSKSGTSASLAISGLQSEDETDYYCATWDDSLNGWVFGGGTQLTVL
notes: also called B2-10_HC; B2-10_LC
With B1, the “fold potency of binding to LILRB2 against binding to LILRA1” value (“fold potency of binding to LILRB2” below) with LILRB2-His antigen [1] is greater than 100 fold. Also, the “% of cells anti-hIgG APC+” value in test [2] was determined as 35.1%. In addition, the EC50 with LILRB2-His antigen [3] was found to be 0.575 nM.

B2: HCB2-5 (antibody, V domains shown)
VH: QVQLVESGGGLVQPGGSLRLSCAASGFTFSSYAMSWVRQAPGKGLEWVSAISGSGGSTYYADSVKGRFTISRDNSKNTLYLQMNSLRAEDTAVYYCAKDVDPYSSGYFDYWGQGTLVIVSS
VL: AIQMTQSPSSVSASVGDRVTITCRASQGIGSWLAWYQQKPGKAPKLLISVASSLQSGVPSRFSGSGSGTDFTLTISSLQPEDFATYYCQQANSFPLTFGGGTTVEIK
notes: also called FCB2-5; HCB2-5_HC
On to B2, for which, in test [4], the Kd amounted to 10.2 nM, the koff is 0.00324 s⁻¹ and the kon was determined as 317000 M⁻¹ s⁻¹. For the same molecule, in the test with LAIR1 on reporter cells [5], the binding result was “no binding”.

B3: HCB2-15 (antibody, V domains shown)
VH: QVQMVESGGDLVQPGQSLRLSCVTSGFPFADYAMSWFRQAPGQRPEWIGYIKSKTRDGTTKYAESLRGRFTISRDDSKSIAYLQMNNLKREDTAVYYCALGGAAALWGPGTLVSVSS
VL: QPPSVSGAPGQRVTISCAGSSSNIGAGYGVHWYQHLPGTAPKLLIYGDNNRPSGVPYRFSGSKSGTSASLAITGLQAEDEADYFCQSYDSSLGVGVFGGGTKVTVL
notes: also called HCB2-15_HC; HCB2-15_LC
Consider B3, for which the binding result in test [6] is reported as “binds”.

B4: HCB2-27 (antibody, V domains shown)
VH: QVQLVESGGGLVKPGGSLRLSCAASGFTFANAWMGWVRQAPGKGLQWVSHIKPSSSGGRTTDYDAPVKGRFTISRDDSNDTVYLQMNSLKTEDTGVYYCVTGRRVAKTFDFWGQGTTVSVSS
VL: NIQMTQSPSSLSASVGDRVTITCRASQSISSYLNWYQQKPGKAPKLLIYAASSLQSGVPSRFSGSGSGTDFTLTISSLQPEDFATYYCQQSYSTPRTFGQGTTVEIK
notes: also called HCB2-27_HC; HCB2-27_LC
With B4, the binding result in [6] was “binds”.

B5: HCB2-10 (antibody, V domains shown)
VH: QVQLVESGGGLVQPGGSLRLSCAASGFTFSNYAMSWVRQAPGKGLEWVSAISGSSISTYYADSVKGRFTISRDNSKNTLYLQMNSLRAEDTAVYYCASSGFGSFDYWGQGTLVTVSS
VL: QPPSVSAAPRQRVTISCSGSSSNIGDNSVNWYQQLPGKAPKLLIYLDDLLPSGVSGRFSGSKSGTSASLVISGLQSEDEADYYCATWDDSLNGVVFGGGTKVTVL
notes: also called HCB2-10_HC; HCB2-10_LC
In the case of B5, in [4], binding was characterised by a dissociation constant (Kd) of 8.67 nM, the koff stood at 0.0061 s⁻¹ and the kon came to 703000 M⁻¹ s⁻¹. In the test with LAIR1 on reporter cells [5], the binding result was “no binding”.

B6: B2-12 (antibody, V domains shown)
VH: QVQLVQSGDEVKKAGASVRVSCKASGYTFPDNGISWVRQAPGHGLEWMGWINVDTGYTHYAQRVQDRVVMTTDTSTNTLHMTLRSLTTDDTAVYYCAREIEGVWTAWGQGTLVIVSS
VL: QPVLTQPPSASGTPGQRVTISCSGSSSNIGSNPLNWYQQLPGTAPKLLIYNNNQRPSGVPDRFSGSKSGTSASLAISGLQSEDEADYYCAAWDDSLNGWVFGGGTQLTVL
notes: also called B2-12_HC; B2-12_LC
For B6, the “fold potency of binding to LILRB2” value in the test with LILRB2-His antigen [1] is greater than 100 fold. Also, the “% of cells anti-hIgG APC+” value in test [2] came to 25.5%. In addition, the binding result with LAIR1 on reporter cells [7], with LILRA5 and in the test with LILRA6 was “no binding” each time. Further, the EC50 in the test with LILRB2-His antigen [3] came to 0.444 nM.

B7: HCB2-13 (antibody, V domains shown)
VH: QVQLVESGGGLVQPGGSLRLSCAASGFTLSSYAMSWVRQAPGEGLEWVSSINSGGSTYYAGSVRGRFTISRDNSKNTLYLQMNSLRAEDTAVYYCAKAKSYSSDLDHWGQGTTVTVSS
VL: DVVMTQSPSSLSVSAGEKVTMSCKSSQSLLNSGNQKTYLAWYQQKPGQPPKLLIYGASTRESGVPDRFTGSGSGTDFTLTISSVQAEDLAVYYCQNDHSYPFTFGSGTKVEIKR
notes: also called HCB2-13_HC; HCB2-13_LC
As to B7, in test [6], the binding result is “binds”.

B8: B2-25 (antibody, V domains shown)
VH: QVQLVESGGGLVKPGGSLRLSCAASGFTFSDHYMSWIRQAPGKGLEWVSYITTTGSTMSYADSVKGRFTISRDNSKNSLHLQLSSLRAEDTAVYYCARDSIHVDGAFDIWGQGTMVTVSS
VL: SYELTQPPSVSVAPGQTARITCGGNNIGSKSVHWYQQKPGQAPVLVVYDDSDRPSGIPERFSGSNSGNTATLTISRVEAGDEADYYCQVWDSSSDHWVFGGGTKLTVL
notes: also called B2-25_HC; B2-25_LC
With B8, the “% of cells anti-hIgG APC+” value in test [2] is 39.2%. Further, the binding result with LAIR1 on reporter cells [7] is reported as “no binding”. In the test with LILRB2-His antigen [3], this molecule showed an EC50 of 1.73 nM.

B9: HCB2-24 (antibody, V domains shown)
VH: QMQLEQSGAEVKKPGSSVKVSCKASGGTFSSYAISWVRQAPGQGLEWMGGIIPIFGTANYAQKFQGRVTITADKSTSTAYMELSSLRSEDTAVYYCARAGGIHYYDSLDYWGQGTLVTVSS
VL: not shown
notes: also called HCB2-24_HC; HCB2-24_LC
With B9, in test [6], the binding result is listed as “binds”.

B10: HCB2-18 (antibody, V domains shown)
VH: QVQLVQSGAEVKKPGSSVKVSCKASGGTFSSYAISWVRQAPGQGLEWMGGIIPIFGTANYAQKFQGRVTITADESTSTAYMELSSLRSEDTAVYYCARGGYQPLDYWGQGTLVIVSS
VL: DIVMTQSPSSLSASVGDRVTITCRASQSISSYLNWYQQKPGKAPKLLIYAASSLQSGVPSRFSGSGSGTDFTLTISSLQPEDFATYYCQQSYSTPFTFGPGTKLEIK
notes: also called HCB2-18_HC; HCB2-18_LC
B10: the binding result in test [6] was “binds”.

B11: B2-18 (antibody, V domains shown)
VH: QVQLVQSGAEVKKPGASVKVSCKASGYTFTRYGFSWVRQAPGQGLEWMGWISGYNGNTKYAQKFQGRVTMTTDTSTSTAYMELRSLTSNDTAVYYCARDRGSGYLEYWGPGTLVTVSS
VL: DVQMTQSPSSLSASVGERVTLTCRASQGIYSSLAWYQQKPGKAPKLLLYGTSQLERGVPSRFSGSGSGTDYTLTISSLQPEDSATYYCQQHYNLPITFGQGTRLEIK
notes: also called B2-18_HC; B2-18_LC
As for B11, the “fold potency of binding to LILRB2” value with LILRB2-His antigen [1] was greater than 100 fold. In addition, in test [2], the “% of cells anti-hIgG APC+” value worked out at 75.6%. The binding result in the test with LAIR1 on reporter cells [7], in the test with LILRA5 and with LILRA6 was “no binding” each time. Moreover, the “percent of LILRB2 reporter cells labeled” value in test [8] was greater than 95%. In the test with LILRB2-His antigen [3], this molecule came in with a half-maximal effective concentration (EC50) of 0.355 nM.

B12: B2-8 (antibody, V domains shown)
VH: QVQLVQSGAEVKKPGSSVKVSCKASGGTFSSYAISWVRQAPGQGLEWMGGIIPIFGTANYAQKFQGRVTITADESTSTAYMELSSLRSEDTAVYYCARVAVADTFFDYWGQGTLVTVSS
VL: QPVLTQPASVSGSPGQSITISCTGTSSDVGGYNYVSWYQQHPGKAPKLMIYDVSNRPSGVSNRFSGSKSGNTASLTISGLQAEDEADYYCSSYTSSSTPYVFGTGTKVTVL
notes: also called B2-8_HC; B2-8_LC
Take B12: the “% of cells anti-hIgG APC+” value in test [2] amounted to 24.8%. This molecule came in with an EC50 in the test with LILRB2-His antigen [3] of 0.557 nM. The binding result with LAIR1 on reporter cells [9] is “no binding”.

B13: B2-24 (antibody, V domains shown)
VH: QVQLVESGGGLVKPGGSLRLSCAASGFTFSDYYMSWIRQAPGKGLEWVSYISSSSSYTNYADSVKGRFTISRDNAKNSLYLQMNSLRAEDTAVYYCARVGDLDAFDIWGQGTMVTVSS
VL: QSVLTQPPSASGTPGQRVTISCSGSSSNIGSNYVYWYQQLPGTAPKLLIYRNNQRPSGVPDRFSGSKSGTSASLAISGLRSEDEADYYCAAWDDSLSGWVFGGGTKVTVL
notes: also called B2-24_HC; B2-24_LC
On to B13, for which, in [2], the “% of cells anti-hIgG APC+” value is 13%. In addition, in the test with LILRB2-His antigen [3], the midpoint of the response, the EC50, lay at 5.06 nM. Moreover, the binding result with LAIR1 on reporter cells [9] is given as “no binding”.

B14: HCB2-17 (antibody, V domains shown)
VH: QVQLVQSGAEVKKPGSSVKVSCKASGGTFSSYAISWVRQAPGQGLEWMGGIIPIFGTANYAQKFQGRVTITADESTSTAYMELSSLRSEDTAVYYCAISSGYYYNPFDYWGQGTLVTVSS
VL: not shown
notes: also called HCB2-17_HC; HCB2-17_LC
With B14, the binding result in [6] is recorded as “binds”.
